Assays:
LNCaP cells = test: MTS cell growth assay of transfected LNCaP cells; format: cell-based, human; conditions: charcoal stripped serum, absence or presence of 0.5 nM R1881
Method: LNCaP cells were transfected by AR-V7 and the control vector. A. Cell growth in medium supplemented with charcoal stripped serum (CSS) in absence or presence of 0.5 nM R1881 were monitored by MTS assay. Ectopic expression of AR-V7 in LNCaP cells was confirmed by western blot analysis (B). As shown the growth rates of AR-V7 expressing cells surpassed those of parental cells cultured in the presence of synthetic androgen R1881.

PSA reporter gene = conditions: exogenously transfected, AR-negative PC-3 cells, presence or absence of R1881
From the text: PC-3 cells were transfected with pEGFP-AR and pEGFP-AR-V7 to express the prototype AR or AR-V7 and examined for the localization of GFP-tagged AR proteins in the presence or absence of 5 nmol/L R1 881. […] PC-3 cells were transfected with vector control (EGFP), a LBD-truncated AR mutant (EGFP-Q640X), AR-V7 (EGFP-AR-V7), and prototype AR (EGFP-AR) and subjected to luciferase assays and Western blot analysis following culturing in the presence or absence of R1 881. […] LNCaP cells were transfected with pcDNA-AR-V7 to express the untagged AR-V7 protein or the control pcDNA vector and cultured with or without 10 nmol/L R1 881 before being harvested for Western blot analysis or RNA extraction for expression microarray analysis. The genes shown were the top 20 ranked genes by fold induction following R1 881 treatment in pcDNA empty vector-transfected LNCaP cells. Expression ratios of the test sample versus the common reference (pcDNA empty vector-transfected LNCaP without R1 881) were represented by red (>1) and green colors (<1).
pEGFP-AR and pEGFP-Q640X, which contain the full-length prototype AR and AR Q640X LBD-truncated mutant cDNA, were kind gifts of Dr. Jocelyn Céraline (Université Strasbourg, Strasbourg, France). The cDNA encoding the full-length AR-V7 was inserted into the pEGFP-C3 vector to express the GFP-AR-V7 fusion protein. […]

[1] = test system: androgen-responsive genes (KLK3, KLK2, NKX3-1, FKBP5, TMPRSS2); conditions: LNCaP cells, absence of androgens
From the text: LNCaP cells were transfected with pcDNA-AR-V7 to express the untagged AR-V7 protein or the control pcDNA vector and cultured with or without 10 nmol/L R1 881 before being harvested for Western blot analysis or RNA extraction for expression microarray analysis. The genes shown were the top 20 ranked genes by fold induction following R1 881 treatment in pcDNA empty vector-transfected LNCaP cells. Expression ratios of the test sample versus the common reference (pcDNA empty vector-transfected LNCaP without R1 881) were represented by red (>1) and green colors (<1).

B1: AR-V7: androgen receptor variant lacking the ligand binding domain, SEQ ID NO: 8, expressed from transfected cDNA (protein)
chain: MEVQLGLGRVYPRPPSKTYRGAFQNLFQSVREVIQNPGPRHPEAASAAPPGASLLLLQQQQQQQQQQQQQQQQQQQQQQQETSPRQQQQQQGEDGSPQAHRRGPTGYLVLDEEQQPSQPQSALECHPERGCVPEPGAAVAASKGLPQQLPAPPDEDDSAAPSTLSLLGPTFPGLSSCSADLKDILSEASTMQLLQQQQQEAVSEGSSSGRAREASGAPTSSKDNYLGGTSTISDNAKELCKAVSVSMGLGVEALEHLSPGEQLRGDCMYAPLLGVPPAVRPTPCAPLAECKGSLLDDSAGKSTEDTAEYSPFKGGYTKGLEGESLGCSGSAAAGSSGTLELPSTLSLYKSGALDEAAAYQSRDYYNFPLALAGPPPPPPPPHPHARIKLENPLDYGSAWAAAAAQCRYGDLASLHGAGAAGPGSGSPSAAASSSWHTLFTAEEGQLYGPCGGGGGGGGGGGGGGGGGGGGGGGEAGAVAPYGYTRPPQGLAGQESDFTAPDVWYPGGMVSRVPYPSPTCVKSEMGPWMDSYSGPYGDMRLETARDHVLPIDYYFPPQKTCLICGDEASGCHYGALTCGSCKVFFKRAAEGKQKYLCASRNDCTIDKFRRKNCPSCRLRKCYEAGMTLGEKFRVGNCKHLKMTRP
LNCaP cells
  cell growth: promotes androgen independent growth
PSA reporter gene
  PSA reporter gene expression: induced PSA reporter gene expression in an androgen-independent manner
[1]
  induction of androgen-responsive genes: induced canonical androgen-responsive genes
